Test results as given in publication PMC9073318 (Plant Communications, 2022).
Substitutions are numbered along the chain they refer to. Names may count otherwise.

T1: TaPAPhy_b2 (Triticum aestivum, UniProt F6MIW5)
T1 sequence (F6MIW5 21-530): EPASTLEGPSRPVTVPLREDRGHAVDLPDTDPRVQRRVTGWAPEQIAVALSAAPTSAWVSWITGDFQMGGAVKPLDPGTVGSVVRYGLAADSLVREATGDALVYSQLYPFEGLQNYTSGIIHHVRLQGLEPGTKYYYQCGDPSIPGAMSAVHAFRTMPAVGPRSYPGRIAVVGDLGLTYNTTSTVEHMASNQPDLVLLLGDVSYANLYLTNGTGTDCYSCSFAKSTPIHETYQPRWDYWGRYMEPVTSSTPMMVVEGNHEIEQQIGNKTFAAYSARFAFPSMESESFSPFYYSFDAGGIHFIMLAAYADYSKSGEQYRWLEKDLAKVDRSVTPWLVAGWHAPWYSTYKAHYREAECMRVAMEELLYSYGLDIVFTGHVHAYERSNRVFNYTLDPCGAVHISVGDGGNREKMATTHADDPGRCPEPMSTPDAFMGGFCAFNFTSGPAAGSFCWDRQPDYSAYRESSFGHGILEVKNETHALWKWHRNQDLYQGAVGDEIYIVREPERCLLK

B1: TaPAPhy_b2 (Triticum aestivum) (protein)
chain: T1 sequence (F6MIW5 21-530)
B2: TaPAPhy_b2 (Triticum aestivum; K368A) (protein)
chain: T1 sequence (F6MIW5 21-530) with K348A
B3: TaPAPhy_b2 (Triticum aestivum; K430A) (protein)
chain: T1 sequence (F6MIW5 21-530) with K410A

Columns and labels:
TaPAPhy_b2 [1] = target: T1, TaPAPhy_b2; design: gene TRAES_3BF026700100CFD_c1; settings: deglycosylated enzyme; product-bound state 1.42 A; bound to both irons (second structure, substrate-bound state, 1.54 A: 6GIZ)
TaPAPhy_b2 [2] = target: T1, TaPAPhy_b2; assay: X-ray crystal structure of soaked crystal; assay type: binding; design: gene TRAES_3BF026700100CFD_c1; signal peptide (20 aa) and C-terminal 7-aa ER-retention signal removed; alpha-factor secretion signal, C-terminal 6xHis; Pichia pastoris KM71H (OCH1::G418R); 510 residues, Fe-Fe centre; glycosylated for assays, Endo F1 deglycosylated for crystals; settings: 5 mM InsS6 soak, pH 5.5; deglycosylated enzyme; site adjacent to active centre (standby mode), phosphate at catalytic centre
purified protein = substrate: O=P(O)(O)O[C@H]1[C@H](OP(=O)(O)O)[C@@H](OP(=O)(O)O)[C@H](OP(=O)(O)O)[C@@H](OP(=O)(O)O)[C@H]1OP(=O)(O)O; assay: purified protein; settings: 0.2 M acetate pH 5.5, glycosylated enzyme

| Molecule | X-ray crystal structure (TaPAPhy_b2 [1]) | X-ray crystal structure of soaked crystal (TaPAPhy_b2 [2]) | Km (purified protein) | kcat (purified protein) |
| --- | --- | --- | --- | --- |
| O=P(O)(O)O [phosphate] | A phosphate ion is bound to the two metal ions | – | – | – |
| O=S(=O)(O)O[C@H]1[C@H](OS(=O)(=O)O)[C@@H](OS(=O)(=O)O)[C@H](OS(=O)(=O)O)[C@@H](OS(=O)(=O)O)[C@H]1OS(=O)(=O)O [InsS6, myo-inositol hexakissulfate] | – | it binds at a site immediately adjacent to the active center | – | – |
| B1 | – | – | 76.4 ± 7.7 µM | 23.8 ± 0.9 s⁻¹ |
| B2 | – | – | 214.6 ± 46.6 µM | 28.4 ± 3.0 s⁻¹ |
| B3 | – | – | 307.6 ± 56.7 µM | 3.1 ± 0.3 s⁻¹ |
